Laboratory results from patent US5482996A, “Protein-containing polymers and a method of synthesis of protein-containing polymers in organic solvents” (University of Pittsburgh, priority 1993, dated 1996).

B1: Subtilisin Carlsberg, native (pure subtilisin standard) (Bacillus licheniformis) (protein)
chain: AQTVPYGIPLIKADKVQAQGFKGANVKVAVLDTGIQASHPDLNVVGGASFVAGEAYNTDGNGHGTHVAGTVAALDNTTGVLGVAPSVSLYAVKVLNSSGSGSYSGIVSGIEWATTNGMDVINMSLGGASGSTAMKQAVDNAYAKGVVVVAAAGNSGSSGNTNTIGYPAKYDSVIAVGAVDSNSNRASFSSVGAELEVMAPGAGVYSTYPTNTYATLNGTSMASPHVAGAAALILSKHPNLSASQVRNRLSSTATYLGSSFYYGKGLINVEAAAQ
notes: purchased Sigma Chemical Co
B2: Subtilisin Carlsberg, unmodified fraction purified from the PEG modification reaction mixture (Bacillus licheniformis) (protein)
chain: B1 chain
notes: purchased Sigma Chemical Co

Legend:
[1] = substrate: C[C@H](NC(=O)CCC(=O)O)C(=O)N[C@@H](C)C(=O)N1CCC[C@H]1C(=O)N[C@@H](Cc1ccccc1)C(=O)Nc1ccc([N+](=O)[O-])cc1; assay: Hydrolysis of peptide p-nitroanilide substrate, kinetic constants; format: biochemical; details: other: Tris-HCl buffer (0.1M, pH 8.6)
Experimental: (§1) Kinetic studies of the modified protein were performed using substrate (N-succinyl-L-alanyl-L-alanyl-L-prolyl-L-phenylalanyl p-nitroanilide) in 0.1M Tris-HCl buffer, pH 8.6. The purified HPLC fractions (three total) were tested for activity while increasing the substrate concentrations in equal increments. Substrate concentration versus rate was plotted to determine Vmax and Km using non-linear regression analysis. A standard of pure subtilisin was analyzed as a control.
As set forth above, the activity of the modified enzymes was assessed with the artificial peptide substrate succinyl-L-alanyl-L-alanyl-L-prolyl-L-phenylalanyl p-nitroanilide. A sample of 30 mg modified protein powder was dissolved in tetrahydrofuran, and filtered with a solvent resistant 0.22 μm filter in order to remove the insoluble native protein. The solvent was evaporated and, as mentioned above, values for Vmax and Km were determined.

[2] = substrate: C[C@H](NC(=O)CCC(=O)O)C(=O)N[C@@H](C)C(=O)N1CCC[C@H]1C(=O)N[C@@H](Cc1ccccc1)C(=O)Nc1ccc([N+](=O)[O-])cc1; assay: as above; format: biochemical; details: other: Tris-HCl buffer (0.1M, pH 8.6); remark: listed apart in the source
Experimental: as §1
Before reacting PEG-subtilisin with other materials it is necessary to fully characterize the activity and stability of the "bio-monomer". Using solubility, IMAC, and HPLC the modified protein was separated into predominantly singly or doubly modified protein fractions. […] Thus, the activities and stabilities noted are average properties for the sample being studied. For comparison to the native protein, unmodified protein was purified from the modification reaction mixture and characterized to some degree.
As set forth above, the activity of the modified enzymes was assessed with the artificial peptide substrate succinyl-L-alanyl-L-alanyl-L-prolyl-L-phenylalanyl p-nitroanilide. […] The solvent was evaporated and, as mentioned above, values for Vmax and Km were determined.

Protein	Km [1] [µM]	Km [2] [µM]
B1	120	–
B2	–	170
